Target: Venus-Gβ2γ7 (Venus 156-239-Gβ2 with Venus 1-155-Gγ7), P62879-1;O60262
Experiment: BRET (suppression of GRK3ct-Gβ2γ7 BRET by competing Gαolf)
Settings: chain shown with the change; HEK293T/17 cells; parent: est. 100; read off a plot

B1: G protein α subunit Gαolf, wild type, P38405 P102_V104del (protein)
chain: MGCLGGNSKTTEDQGVDEKERREANKKIEKQLQKERLAYKATHRLLLLGAGESGKSTIVKQMRILHVNGFNPEEKKQKILDIRKNVKDAIVTIVSAMSTIIPLANPENQFRSDYIKSIAPITDFEYSQEFFDHVKKLWDDEGVKACFERSNEYQLIDCAQYFLERIDSVSLVDYTPTDQDLLRCRVLTSGIFETRFQVDKVNFHMFDVGGQRDERRKWIQCFNDVTAIIYVAACSSYNMVIREDNNTNRLRESLDLFESIWNNRWLRTISIILFLNKQDMLAEKVLAGKSKIEDYFPEYANYTVPEDATPDAGEDPKVTRAKFFIRDLFLRISTATGDGKHYCYPHFTCAVDTENIRRVFNDCRDIIQRMHLKQYELL
  percent of parent: 29%
